From patent publication KR20190006154A

Molecular target: FMDV O1 Manisa (Foot and Mouth Disease Virus serotype O)
Experiment: indirect ELISA, inactivated FMDV coated, hybridoma supernatant

B1: 4B14 (antibody, V domains shown)
VH: EVQLQQSGPEVVKPGASVKMSCKASGYSFTGYYMNWVKQSHVKSLEWIGRINPDNGATNYNQNVKDKASLTVDKSSNTAYMELHSLTSEDSAVYYCARWLLSPYVMDYWGQGTSVTVSS
VL: DIVLTQSPASLAVSLGQRATISYRASKSVSTSGYSYMHWNQQKPGQPPRLLIYLVSNLESGVPARFSGSGSGTDFTLNIHPVEEEDAATYYCQHIRELTRSEGGPSW
O.D (450nm) in ELISA screening plate: 2.31 O.D (450nm)

B2: 7F32 (antibody, V domains shown)
VH: EVQLVESGGDLVKPGGSLKLSCAASGFTFSNYGMSWGRQTPDKRLEWVATISSGGSYTYYPDSLKGRFTISRDNAKNTLYLQMTSLKSEDTAMYYCSSPYYDSSYDYSLDYWGQGTSVTVSS
VL: B1 VL
O.D (450nm) in ELISA screening plate: 0.91 O.D (450nm)
